The text below walks through data of paper PMC2573919, “The Desensitization Gating of the MthK K^+ Channel Is Governed by Its Cytoplasmic Amino Terminus” (PLoS Biology, 2008).

This assay addresses Isolated RCK domain (M107-A336) of MthK, preparation for NMR (from pQE70-MthK) (Methanobacterium thermoautotrophicum, UniProt O27564 107-336). Briefly: NMR titration; 700-MHz 1H NMR, 25 °C; isolated RCK titrated with synthetic peptide at [peptide]:[RCK] 0:1, 1:5, 1:2, 1:1 and 1:0; 20 mM Tris-HCl (pH 7.5), 150 mM KCl, 1 mM DTT; RCK concentrated to approximately 200 μM; disappearance of the peptide's His11 and Met1 peaks followed. Conditions: both partners purified.

Where no end group is shown, it is not given here.

B1: synthetic aa1–11 peptide (peptide)
peptide: MVLVIEIIRKH-NH2
notes: MthK K+ channel of Methanobacterium thermoautotrophicum, N-terminal residues 1-11; source: synthetic peptide (Celtek Peptides)
As to B1, the binding result is recorded as “binds”.
